# According to paper PMC10786891, “Massively parallel profiling of RNA-targeting CRISPR-Cas13d”:
# Residue numbers refer to the chain shown, from its start. Names may count otherwise.
# T1: EsCas13d, nuclease-dead (Eubacterium siraeum, UniProt B0MS50, R295A;H300A;R849A;H854A)
# T1 sequence: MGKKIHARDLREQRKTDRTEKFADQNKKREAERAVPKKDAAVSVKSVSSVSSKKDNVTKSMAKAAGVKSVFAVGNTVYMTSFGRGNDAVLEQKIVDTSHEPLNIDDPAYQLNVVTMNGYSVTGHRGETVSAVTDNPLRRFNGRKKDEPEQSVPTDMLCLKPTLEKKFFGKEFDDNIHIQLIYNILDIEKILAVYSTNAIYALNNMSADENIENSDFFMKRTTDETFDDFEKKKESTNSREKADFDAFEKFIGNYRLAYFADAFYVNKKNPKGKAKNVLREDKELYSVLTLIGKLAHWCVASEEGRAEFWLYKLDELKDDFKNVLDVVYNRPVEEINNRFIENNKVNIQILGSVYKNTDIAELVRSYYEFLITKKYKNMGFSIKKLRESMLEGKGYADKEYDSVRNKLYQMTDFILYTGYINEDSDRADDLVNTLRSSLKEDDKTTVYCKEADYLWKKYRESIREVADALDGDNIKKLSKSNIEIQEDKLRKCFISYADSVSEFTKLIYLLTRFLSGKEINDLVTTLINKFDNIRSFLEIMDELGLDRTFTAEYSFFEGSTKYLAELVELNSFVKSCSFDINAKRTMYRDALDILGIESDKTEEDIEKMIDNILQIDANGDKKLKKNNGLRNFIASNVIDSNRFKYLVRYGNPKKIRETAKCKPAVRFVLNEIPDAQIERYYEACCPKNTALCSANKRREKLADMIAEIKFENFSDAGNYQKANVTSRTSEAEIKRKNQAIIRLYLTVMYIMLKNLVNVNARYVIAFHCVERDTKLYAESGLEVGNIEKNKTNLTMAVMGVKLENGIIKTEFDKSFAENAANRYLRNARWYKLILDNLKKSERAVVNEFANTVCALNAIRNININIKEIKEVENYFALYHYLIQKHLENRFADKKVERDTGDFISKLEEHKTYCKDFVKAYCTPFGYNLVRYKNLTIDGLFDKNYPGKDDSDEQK
# B1: target 3 G3U,A18G (mixed)
# RNA 1: CACCCGUGCAAAAUUGCAGGGGUCUAAAACGACCUGAAUAUUUCAGAUCAAA
# RNA 2: GGGAAUGGAUCCACAUCUACGAAUUCGUUUUUGGUCUGAAAUAUUCAGUUCUGCAGAUCGGAAGAGCACACGU
# B2: target 3 U7G,U8G (mixed)
# RNA 1: B1 RNA 1
# RNA 2: B1 RNA 2 with G34A, U44G, U45G, U49G
# B3: target 3 insA 3' of 6,insC 3' of 2 (mixed)
# RNA 1: B1 RNA 1
# RNA 2: GGGAAUGGAUCCACAUCUACGAAUUCGUUUUUGAUCUGAAAUAUUCAAGGUCCUGCAGAUCGGAAGAGCACACGU
# B4: target 3 insG 3' of 11,insU 3' of 3 (mixed)
# RNA 1: B1 RNA 1
# RNA 2: B3 RNA 2 with U42G, A43U, U44A, C46U, A47C, C52U
# B5: target 3 insU 3' of 22,insU 3' of 1 (mixed)
# RNA 1: B1 RNA 1
# RNA 2: GGGAAUGGAUCCACAUCUACGAAUUCGUUUUUUGAUCUGAAAUAUUCAGGUCUUGCAGAUCGGAAGAGCACACGU
# B6: target 1 insC 3' of 22,insG 3' of 19 (mixed)
# RNA 1: CACCCGUGCAAAAAUGCAGGGGUCUAAAACUGAGCGGAUAACCUCUCUAUGG
# RNA 2: GGGAAUGGAUCCACAUCUACGAAUUCGUACCCAUGAGAGAGGUUAUCCGCUCACCGAGAUCGGAAGAGCACACGU
# B7: target 3 G3A,C6U (mixed)
# RNA 1: B1 RNA 1
# RNA 2: B1 RNA 2 with G34A, C46U, U49A
# B8: target 3 A18G,U21A (mixed)
# RNA 1: B1 RNA 1
# RNA 2: B1 RNA 2 with U31A, U49G
# B9: target 3 G4A,C6A (mixed)
# RNA 1: B1 RNA 1
# RNA 2: B1 RNA 2 with G34A, C46A, G48A, U49G
# B10: target 3 insG 3' of 1 (mixed)
# RNA 1: B1 RNA 1
# RNA 2: GGGAAUGGAUCCACAUCUACGAAUUCGUUUUUGAUCUGAAAUAUUCAGGUCGUGCAGAUCGGAAGAGCACACGU
# B11: target 3 insC 3' of 8,insU 3' of 6 (mixed)
# RNA 1: B1 RNA 1
# RNA 2: B3 RNA 2 with U45C, C46U, A47C, A48U, G49A, U51G, C52U
# B12: target 3 insC 3' of 5,insU 3' of 4 (mixed)
# RNA 1: B1 RNA 1
# RNA 2: B3 RNA 2 with A48C, G50U, U51G, C52U
# B13: target 3 G4A,G19U (mixed)
# RNA 1: B1 RNA 1
# RNA 2: B1 RNA 2 with G33U, G34A, G48A, U49G
# B14: target 3 U8C,A18G (mixed)
# RNA 1: B1 RNA 1
# RNA 2: B1 RNA 2 with U44C, U49G
# B15: target 3 insC 3' of 8,insG 3' of 8 (mixed)
# RNA 1: B1 RNA 1
# RNA 2: B3 RNA 2 with U45C, C46G, A47U, A48C, G49A, U51G, C52U
# B16: target 3 insU 3' of 1,insG 3' of 1 (mixed)
# RNA 1: B1 RNA 1
# RNA 2: B3 RNA 2 with A48G, G50U, U51C, C52U, C53G
# Biological target: T1, EsCas13d, nuclease-dead
# Test: crRNA (strand 1, pre-loaded); Mg2+; 40 mM Tris-HCl pH 7.5, 150 mM NaCl, 6 mM MgCl2, 1 mM DTT, 0.1% Tween-20, 0.2 mg/ml BSA; 25 C; 10 min per concentration, then washed
# Settings: tags: His6-TwinStrep-SUMO cleaved; N-terminal SNAP kept (SNAP-Surface 488); label: 3' end held by stalled T7 RNA polymerase
row,Binder,Kd [nM]
1,B1,34.4 ± 3.25
2,B2,48.5 ± 9
3,B3,35 ± 9
4,B4,96 ± 21.5
5,B5,77.5 ± 17.5
6,B6,64 ± 15
7,B7,42 ± 5
8,B8,57.5 ± 10
9,B9,23.8 ± 2.65
10,B10,44.5 ± 9.5
11,B11,78 ± 11.5
12,B12,9.85 ± 0.85
13,B13,98.5 ± 19.5
14,B14,55.5 ± 4.5
15,B15,79 ± 15.5
16,B16,20.4 ± 2.25
